Reference: patent US20230312744A1, “Modulatory Substance of Tumor Immune Microenvironment, and Preventive, Diagnostic and/or Therapeutic Utilization of the Same” (The University Of Tokyo, priority 2020, published 2023)

Biological target: T1, mouse TCTP (Mus musculus, UniProt P63028)
T1 construct: preparing the whole cell lysate of TCTP WT SL4 cells (WT) or TCTP KO SL4 cells (KO), followed by immunoblotting; endogenous in cells; host or cells: SL4 mouse colon carcinoma cells (TCTP WT; TCTP KO as negative control)
T1 sequence (P63028 1-172): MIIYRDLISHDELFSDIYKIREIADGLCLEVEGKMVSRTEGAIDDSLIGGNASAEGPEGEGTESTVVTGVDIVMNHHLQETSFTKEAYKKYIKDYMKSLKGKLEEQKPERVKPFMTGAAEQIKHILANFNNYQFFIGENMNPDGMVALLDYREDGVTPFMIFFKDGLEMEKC
Assay: Immunoblotting of whole cell lysate of TCTP WT / TCTP KO SL4 cells using the 55F3 monoclonal antibody
Format: binding
Settings: lysate of TCTP WT vs TCTP KO SL4 cells, FIG. 12(a)
Description: In FIG. 12(b), PECs (2×10^5 cells) were stimulated with a supernatant of dead SL4 cells comprising the 55F3 antibody or control IgG. After the stimulation for 2 hours, the expressed Cxcl1 mRNA was quantified by RT-qPCR. n=3, and Sup: culture supernatant. In FIG. 12(c), TCTP WT SL4 cells or TCTP KO SL4 cells ([…]) were subcutaneously transplanted into C57BL/6 mice. After the transplantation, DHA (50 mg/kg) or DMSO was intraperitoneally administered to the mice every day (n=6). In FIG. 12(d), (left view) the expression level of TCTP in the interstitial area of normal large intestinal tissues was compared with the expression level of TCTP in the interstitial area of colorectal cancer tissues. In FIG. 12(d), (right view) a normal colon crypt was compared with a neoplastic lesion. […] Spearman r: spearman correlation coefficients. *P<0.05, **P<0.01. Regarding FIG. 12(b), repeated measures one-way ANOVA with Dunnett's multiple comparisons test. Regarding FIG. 12(c), repeated measures one-way ANOVA with Tukey's multiple comparisons test. […]
Immunoblot analysis was performed according to the previous report (Inoue et al., Nature 434, 243-249, doi: 10.1038/nature03308 (2005)). β-Actin (cat# A5441) was purchased from Sigma-Aldrich. […] Immunoblotting signals were detected by FUSION Solo S (Vilber-Lourmat), and were then analyzed by FUSION Capt Advanced software (Vilber-Lourmat). […]

B1: 55F3: Mouse monoclonal antibody against human TCTP peptide SEQ ID NO: 25; CDRs SEQ ID NO: 1-6, VH SEQ ID NO: 19, VL SEQ ID NO: 22 (antibody, listed as Mus musculus)
VH: MRVLILLWLFTAFPGILSDVQLQESGPGLVKPSQSLSLTCTATGYSIASDYAWNWIRQFPGNKLEWMGYINYSGSTGYNPSLKSRISITRDTSKNQFFLQLNSVTTEDTATYYCARFEAGYWGQGTTLTVSSAKTTPPSVYPLAPGSAAQTNSMVTLGCLVKGYFPEPVT
VL: MDMRTPAQFLGILLLWFPGIKCDIKMTQSPSSMSASLGERVTITCKASQDINRYLSWFQQKPGKSPKTLIYRANRLVDGVPSRFSGSGSGQDYSLTISSLEYGDMGIYYCLQYNEFPLTFGAGTKLELKRADAAPTVSIFPPSSEQLTSGGASVVCFLN
Question: B1 was tested. Which “species crossing property to mouse TCTP” value did it give?
Answer: The value was “has species crossing property to mouse TCTP”.
